Laboratory results as given in US6988446B2, “Purified nitric oxide synthase” (priority 1996, dated 2006).
pKi: −log10 of the molar value. Like-named read-outs stand apart in the source and are kept apart here. Marks after values point to notes of the source that are not given here. Non-standard residues stand in square brackets, D forms with d. No end group written: not given here. 2Thi = N[C@@H](Cc1cccs1)C(=O)O

Assays:
[1] = target: nNOS (Rattus norvegicus, UniProt P29476); details: cited from earlier work
[2] = target: T1, nNOS-II (Rattus norvegicus, UniProt P29476); assay: Kinetic determinations (KM, Vmax, Ki) with the standard enzyme assay; format: biochemical
T1 sequence (P29476 whole entry): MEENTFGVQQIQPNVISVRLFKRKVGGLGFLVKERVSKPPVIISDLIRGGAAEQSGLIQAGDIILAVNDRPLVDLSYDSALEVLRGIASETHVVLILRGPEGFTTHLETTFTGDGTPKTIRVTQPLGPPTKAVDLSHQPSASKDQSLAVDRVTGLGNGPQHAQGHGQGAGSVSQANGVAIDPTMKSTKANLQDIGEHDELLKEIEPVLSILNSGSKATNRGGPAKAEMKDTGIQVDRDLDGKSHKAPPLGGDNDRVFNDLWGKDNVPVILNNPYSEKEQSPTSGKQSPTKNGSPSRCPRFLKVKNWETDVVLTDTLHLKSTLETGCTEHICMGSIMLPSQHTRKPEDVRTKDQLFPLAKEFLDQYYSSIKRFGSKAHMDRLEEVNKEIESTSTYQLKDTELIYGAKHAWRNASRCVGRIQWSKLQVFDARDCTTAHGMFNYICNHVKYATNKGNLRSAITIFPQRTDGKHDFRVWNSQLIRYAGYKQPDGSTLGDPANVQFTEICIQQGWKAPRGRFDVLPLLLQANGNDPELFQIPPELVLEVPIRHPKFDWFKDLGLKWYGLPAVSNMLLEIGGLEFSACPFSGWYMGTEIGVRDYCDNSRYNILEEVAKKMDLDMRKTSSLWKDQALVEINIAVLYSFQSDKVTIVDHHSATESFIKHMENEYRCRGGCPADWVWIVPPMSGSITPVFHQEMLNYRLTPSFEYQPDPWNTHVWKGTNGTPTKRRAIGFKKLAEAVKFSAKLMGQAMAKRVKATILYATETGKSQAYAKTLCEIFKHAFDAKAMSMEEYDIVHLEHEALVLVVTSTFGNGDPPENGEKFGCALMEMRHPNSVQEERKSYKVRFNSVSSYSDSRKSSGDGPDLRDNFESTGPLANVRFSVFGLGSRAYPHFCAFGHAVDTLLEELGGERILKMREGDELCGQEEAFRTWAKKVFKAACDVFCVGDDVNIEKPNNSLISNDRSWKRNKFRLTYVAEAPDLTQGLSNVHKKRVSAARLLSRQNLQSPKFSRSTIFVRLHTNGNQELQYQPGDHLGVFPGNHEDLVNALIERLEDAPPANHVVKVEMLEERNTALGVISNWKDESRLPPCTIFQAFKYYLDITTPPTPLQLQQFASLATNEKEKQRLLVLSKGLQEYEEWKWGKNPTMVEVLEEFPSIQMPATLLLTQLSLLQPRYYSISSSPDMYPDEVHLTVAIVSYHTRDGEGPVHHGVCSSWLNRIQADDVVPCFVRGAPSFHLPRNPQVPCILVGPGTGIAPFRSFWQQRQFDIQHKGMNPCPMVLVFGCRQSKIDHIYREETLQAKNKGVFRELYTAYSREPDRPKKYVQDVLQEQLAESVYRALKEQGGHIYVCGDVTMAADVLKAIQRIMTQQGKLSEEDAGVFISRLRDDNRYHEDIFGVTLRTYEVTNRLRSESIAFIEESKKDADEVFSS
Protocol: (§1) NOS Activity Assay: NOS activity was determined spectrophotometrically by the rapid and quantitative oxidation of oxyhemoglobin to methemoglobin (Feelish et al., Eur. J. Pharmacol. 139:19-30 (1987); Olken et al., Biochem. Biophys. Res. Commun. 177:828-833 (1991)).
(§2) Thus, reaction mixtures for NOS assays containing 50 mM Tris-HCl buffer (pH 7.5), were optimized to contain 4 μM oxyhemoglobin, 100 μM NADPH, 1 mM CaCl2, 10 μM FAD, 10 μM FMN, 20 μM BH4, 150 μM DTT, 100 μM BK or L-arginine and 0.1-3 μg enzyme in a final volume of 0.5 mL.
(§3) Thus, calmodulin (10 μg/mL) was added to the reaction mixtures when L-arginine was used as substrate.
Kinetic data were calculated by fitting experimental data to the EZ-FIT program (Perrella, Anal. Biochem. 174.437-447 (1988)).
(§4) NOS activity assay. NOS activity was determined spectrophotometrically by the rapid and quantitative oxidation of oxyhemoglobin to methemoglobin (10,11). Optimized reaction mixtures for NOS assays contained 50 mM Tris-HCl buffer (pH 7.5), and were optimized to contain 4 μM oxyhemoglobin, 100 μM NADPH, 1 mM CaCl2, 10 μM FAD, 10 μM FMN, 20 μM BH. 150 μM DTT, 100 μM BK or L-arginine and 0.1-3 μg enzyme in a final volume of 0.5 ml. Calmodulin (10 μg/ml) was added to the reaction mixtures when L-arginine was used as substrate.
Kinetic determinations. Kinetic experiments were conducted using the standard enzyme assay described above. […] Kinetic data were calculated by fitting experimental data to EZ-FIT program (12).

[3] = target: T1, nNOS-II; assay: Standard NOS enzyme assay (oxyhemoglobin to methemoglobin), peptides as substrates, initial velocity; format: biochemical; set-up: decrease of activity as substrate: concentration or dose not given beside the values; details: for relative activity as substrate for nNOS-II (in words): comparator (arginine or BK)
Protocol: as §1, §2, §3, §4

[4] = Table 3, substrate 100 μM (poly-arginine 5 μg/ml), purified nNOS-II 0.2 μg, activity for arginine = 100%, means of three measurements
[5] = substrate 100 μM (poly-arginine 5 μg/ml), purified nNOS-II 0.2 μg, activity for arginine = 100%, means of three measurements

## N=C(N)NCCC[C@H](N)C(=O)O [L-arginine]
[1]; previously described nNOS (Bredt et al.), read-out: reported KM for nNOS
  Km: 2 µM
[1]; previously described nNOS, L-arginine as substrate
  apparent Vmax for nNOS: 0.96 μmol/min/mg protein
[2]; substrate of nNOS-II, calmodulin added when L-arginine is substrate
  apparent Vmax: 0.85 μmol/min/mg protein
[3]
  Relative Activity (%): 100^c %
  Relative activity (%): 100^c %

## Arg-Pro-Pro-Gly-Phe (RPPGF; rat) [BK fragment 1-5]
[3]; [4]
  Relative activity (%): 61%
[3]; [5]
  Relative Activity (%): 61%
[3]; text of Example 2, relative to BK
  activity of that for BK: about 50%

## Arg-Pro-Pro-Gly-Phe-Ser-Pro-Phe (APPGFSPF; rat) [Des-Arg^9-BK]
[3]; [4]
  Relative activity (%): 180%
[3]; [5]
  Relative Activity (%): 180%
[3]; text of Example 2
  relative activity as substrate for nNOS-II (in words): about one-fold higher than that of arginine

## ISRPPGFSPFR [Ile-Ser-BK]
[3]; [4]
  Relative activity (%): 110%
[3]; [5]
  Relative Activity (%): 110%

## KPPGFSPFR [[Lys^1]-BK]
[3]; [4]
  Relative activity (%): 113%
[3]; [5]
  Relative Activity (%): 113%

## Lys-Arg-Pro-Pro-Gly-Phe-Ser-Pro-Phe-Arg [Lys-BK]
[3]
  Relative Activity (%): 116%
  Relative activity (%): 116%
[3]; text of Example 2
  relative activity as substrate for nNOS-II (in words): almost the same activity

## Met-Lys-Arg-Pro-Pro-Gly-Phe-Ser-Pro-Phe-Arg [Met-Lys-BK]
[3]
  Relative Activity (%): 0%
  Relative activity (%): 0%
[3]; text of Example 2
  relative activity as substrate for nNOS-II (in words): no activity at all

## PPGFSP [BK fragment 2-7]
[3]; [4]
  Relative activity (%): 0%
[3]; [5]
  Relative Activity (%): 0%

## PPGFSPFR [Des-Arg^1-BK]
[3]; [4]
  Relative activity (%): 94%
[3]; [5]
  Relative Activity (%): 94%
[3]; text of Example 2
  relative activity as substrate for nNOS-II (in words): activity similar to that of arginine

## Poly-arginine
[3]
  Relative Activity (%): 30%
  Relative activity (%): 30%
  activity for nNOS-II comparing to that of arginine: 30%

## RPPGFSP [BK fragment 1-7]
[3]; [4]
  Relative activity (%): 80%
[3]; [5]
  Relative Activity (%): 80%
[3]; text of Example 2, comparator not stated
  decrease of activity as substrate: 30%

## RPPGFSPFR [BK]
[3]; [4]
  Relative activity (%): 125%
[3]; [5]
  Relative Activity (%): 125%

## [N-adamantaneacetyl-D-Arg^0, Hyp^3, Thi^5,8, D-Phe^7]-BK
[2]; nNOS-II with BK as substrate, competitive inhibition, read-out: apparent Ki
  pKi: 5.60

## [Thi^5,8, D-Phe^7]-BK (RPPG[2Thi]S[dF][2Thi]R)
[2]; concentration range of 0.5-100 μM
  effect on nNOS-II activity: no effect
[2]; concentration range of 0.5-100 mM
  effect on nNOS-II activity: no effect
